Source: the supplement of paper PMC9876800

Test system: peptide library, one residue held at a place counted from the S/T acceptor
Assay: relative phosphorylation of the sub-library (ratio to the mean residue at this position); higher = residue favoured
Outline: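 Relative sub-library phosphorylation is the ratio of each sub-library's signal to the mean residue at that position. The signal came from phosphorimaging of spots on streptavidin membranes, quantified by densitometry, after purified recombinant kinases reacted with biotinylated degenerate peptide sub-libraries in 384-well plates. Reactions held 50 μM peptide and 50 μM ATP spiked with γ-32P-ATP for 90 min under kinase-specific conditions.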

VRK1, construct: Full length, human, sequence (Q99986 whole entry, looked up): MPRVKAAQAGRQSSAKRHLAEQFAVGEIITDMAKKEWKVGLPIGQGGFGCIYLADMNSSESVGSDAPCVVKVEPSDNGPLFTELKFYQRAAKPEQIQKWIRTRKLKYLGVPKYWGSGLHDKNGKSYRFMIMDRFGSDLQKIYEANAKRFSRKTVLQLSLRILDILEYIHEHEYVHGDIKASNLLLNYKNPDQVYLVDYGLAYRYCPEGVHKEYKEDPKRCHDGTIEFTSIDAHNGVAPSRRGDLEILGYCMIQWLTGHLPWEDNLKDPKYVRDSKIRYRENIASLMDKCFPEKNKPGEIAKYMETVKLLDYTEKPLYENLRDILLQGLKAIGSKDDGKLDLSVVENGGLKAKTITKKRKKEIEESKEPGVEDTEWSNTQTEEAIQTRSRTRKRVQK

VRK1, construct: Full length, human (from UniProt Q99986)
relative phosphorylation
Conditions	at +1	at +2	at +3	at +4	at -1	at -2	at -3	at -4	at -5
A fixed	0.79	0.924	1.23	0.978	0.758	1.02	1.09	1.03	1.08
D fixed	0.363	0.406	0.525	0.96	0.661	0.802	0.824	0.886	0.865
E fixed	0.548	0.393	0.461	0.739	0.608	0.645	0.81	0.927	0.837
F fixed	0.972	0.746	0.877	1.01	1.04	0.8	0.902	1.02	1.01
G fixed	0.532	0.549	1.7	1.31	0.648	2.31	1.45	1.34	1.34
H fixed	0.951	0.83	1.79	1.03	1.17	1.21	1.15	1.15	1.01
I fixed	0.921	1.63	0.573	0.884	1.31	0.622	0.772	0.859	0.822
K fixed	1.4	1.45	0.815	0.87	0.984	0.759	1.02	0.865	0.88
L fixed	0.642	1.22	0.637	0.985	1.33	0.764	0.745	0.796	0.646
M fixed	1.11	1.67	0.865	1.06	1.06	0.946	0.862	0.916	0.835
N fixed	0.724	0.64	1.65	0.997	0.843	1.38	0.982	1.06	0.919
P fixed	0.305	0.423	0.456	0.688	0.738	1.25	1.28	1.02	1.21
Q fixed	1.4	1.34	0.988	0.952	0.977	1.19	1.03	0.962	1.01
R fixed	2.6	1.2	1.22	1.33	1.03	1.01	1.3	0.978	1.23
V fixed	1.39	2.09	0.723	0.75	1.53	0.616	0.848	0.97	1.02
W fixed	1.15	0.695	1.2	1.32	1.02	0.815	0.931	1.14	1.13
Y fixed	1.19	0.795	1.29	1.14	1.3	0.856	0.999	1.07	1.16
pThr fixed	0.771	0.821	0.698	0.728	0.751	0.781	0.938	0.862	0.958
pTyr fixed	0.752	0.601	0.942	1.37	1.03	0.723	1	0.967	1.05
